This test deals with CENP-A-H4 complex (UniProt P49450 1-140; P62805 1-103). Description: native gel or EMSA.
Sequence of CENP-A-H4 complex (P49450 whole entry, one chain of several): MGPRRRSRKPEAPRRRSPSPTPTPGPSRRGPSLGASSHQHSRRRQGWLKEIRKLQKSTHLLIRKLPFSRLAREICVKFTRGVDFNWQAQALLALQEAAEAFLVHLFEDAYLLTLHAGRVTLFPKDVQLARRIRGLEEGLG

B1: His6-EWSR1 (natural protein)
chain: MASTDYSTYSQAAAQQGYSAYTAQPTQGYAQTTQAYGQQSYGTYGQPTDVSYTQAQTTATYGQTAYATSYGQPPTGYTTPTAPQAYSQPVQGYGTGAYDTTTATVTTTQASYAAQSAYGTQPAYPAYGQQPAATAPTRPQDGNKPTETSQPQSSTGGYNQPSLGYGQSNYSYPQVPGSYPMQPVTAPPSYPPTSYSSTQPTSYDQSSYSQQNTYGQPSSYGQQSSYGQQSSYGQQPPTSYPPQTGSYSQAPSQYSQQSSSYGQQSSFRQDHPSSMGVYGQESGGFSGPGENRSMSGPDNRGRGRGGFDRGGMSRGGRGGGRGGMGSAGERGGFNKPGGPMDEGPDLDLGPPVDPDEDSDNSAIYVQGLNDSVTLDDLADFFKQCGVVKMNKRTGQPMIHIYLDKETGKPKGDATVSYEDPPTAKAAVEWFDGKDFQGSKLKVSLARKKPPMNSMRGGLPPREGRGMPPPLRGGPGGPGGPGGPMGRMGGRGGDRGGFPPRGPRGSRGNPSGGGNVQHRAGDWQCPNPGCGNQNFAWRTECNQCKAPKPEGFLPPPFPPPGGDRGRGGPGGMRGGRGGLMDRGGPGGMFRGGRGGDRGGFRGGRGMDRGGFGGGRRGGPGGPPGPLMEQMGGRRGGRGGPGKMDKGEHRQERRDRPY
B1: the binding result was “binds”.

The record behind these values is article PMC10758295 (Cell reports, 2023).
